Data on 3 molecules can be found in US20210101970A1 (Pfizer, published 2021).

One assay concerns the target T1, XC252.
T1 construct: whole, on cells; also called hCXCR5-mL2
Description: FACS on cells expressing the CXCR5 construct.

The target in assay [1] is T2, human CXCR5 (human, UniProt P32302 1-372).
T2 construct: also called hCXCR5; C-X-C chemokine receptor type 5
T2 sequence: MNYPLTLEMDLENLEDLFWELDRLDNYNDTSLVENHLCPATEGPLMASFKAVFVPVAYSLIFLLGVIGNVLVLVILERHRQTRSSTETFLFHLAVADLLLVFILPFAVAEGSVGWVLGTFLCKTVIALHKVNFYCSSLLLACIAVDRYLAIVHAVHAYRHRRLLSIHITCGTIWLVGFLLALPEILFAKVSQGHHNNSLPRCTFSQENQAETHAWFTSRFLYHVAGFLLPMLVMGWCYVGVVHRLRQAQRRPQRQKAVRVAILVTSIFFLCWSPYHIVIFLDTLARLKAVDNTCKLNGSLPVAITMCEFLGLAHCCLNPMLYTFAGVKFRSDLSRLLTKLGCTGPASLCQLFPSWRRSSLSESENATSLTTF
Description: FACS on cells expressing the CXCR5 construct.

The target of a further assay is T3, XC253.
T3 construct: whole, on cells; also called hCXCR5-mN
Description: FACS on cells expressing the CXCR5 construct.

The next assay concerns the target T4, XC254.
T4 construct: whole, on cells; also called hCXCR5-mL2-mL3
Description: FACS on cells expressing the CXCR5 construct.

In the next assay the target is T5, XC251.
T5 construct: whole, on cells; also called hCXCR5-mL3
Description: FACS on cells expressing the CXCR5 construct.

Another assay addresses T6, XC256.
T6 construct: whole, on cells; also called hCXCR5-mN-mL2
Description: FACS on cells expressing the CXCR5 construct.

The next assay has as its target T7, XC255.
T7 construct: whole, on cells; also called hCXCR5-mN-mL3
Description: FACS on cells expressing the CXCR5 construct.

Assay [2] deals with T2, human CXCR5. Description: flow cytometry, human PBMC B cells. In short, it runs like this: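 Human and cynomolgus PBMCs stained with 4-fold serial antibody dilutions (11 points from 5000 ng/mL) plus Fc block, 2 h on ice, then lineage markers and anti-human Ig secondary 30 min at 4 °C. gMFI of binding population read by flow cytometry; EC50 from sigmoidal fit of equilibrium binding curves.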
In general terms: In flow cytometry, cells or beads pass a laser one at a time.

Assay [3] concerns the target T2, human CXCR5. Description: cell-based or functional assay.
Assay [4] has as its target T2, human CXCR5. Description: flow cytometry, human tonsil Tfh cells. On the procedure: Following centrifugation, red blood cell lysis was performed on the pellet using an ammonium chloride lysis buffer. Platelets were removed using a low speed centrifugation (200×g) for 10 minutes in Phosphate-Buffered Saline (PBS)/2% FBS/2 mM Ethylenediaminetetraacetic acid (EDTA). CD4+ T cells were purified out of the TMC mixture using an EasySep™ Human CD4+ T Cell Enrichment Kit, according to the manufacturer's instructions ([…] Technologies, Vancouver, BC, Canada).
Following isolation, PBMCs were plated at a density of 1.0×10⁵ cells per well and CD4+ TMCs were plated at a density of 2.0×10⁵ cells per well in isolation buffer (PBS containing 1% FBS and 1 mM EDTA) in 96 well U-bottom plates. The plates were then centrifuged at 1500 rpm for 5 minutes at room temperature. PBMCs and CD4+ TMCs were resuspended in Fluorescence-activated cell sorting (FACS) buffer (PBS containing 1% FBS) containing human crystallized fragment Fc block (2 μL per well; Biolegend) and 4-fold serial dilutions of the antibodies (11-point dilution series, beginning at 5000 ng/mL for PBMCs and 312.5 ng/mL for CD4+ TMCs) and incubated on ice for 2 hours. PBMCs and CD4+ TMCs were then washed with FACS buffer 3 times and resuspended in 50-100 μL of FACs buffer containing fluorescent-conjugated antibodies for staining lymphocyte subsets and a fluorescent-conjugated secondary antibody against human Ig to detect CXCR5 monoclonal antibodies (mAbs). After incubation for 30 minutes at 4° C., PBMCs and CD4+ TMCs were washed with FACS buffer 2 times and resuspended in 125 μL of 0.5% paraformaldehyde (PFA) in PBS. Plates were stored at 4° C. until analysis by flow cytometry (BD LSRFortessa™ Cell Analyzer, BD Biosciences, Franklin Lakes, N.J.).
The cell binding titration curves were generated by plotting the gMFI of the antigen binding population against the log of CXCR5 antibody concentration. EC₅₀ values were determined using GraphPad Prism® (version 6.0, GraphPad Software, Inc, San Diego, Calif.) nonlinear-regression curve fits and a sigmoidal log of agonist dose-response model, according to the following equation

Another assay addresses T8, cynomolgus monkey CXCR5 (cynomolgus monkey, UniProt P32302 1-372 (human entry)).
T8 chain: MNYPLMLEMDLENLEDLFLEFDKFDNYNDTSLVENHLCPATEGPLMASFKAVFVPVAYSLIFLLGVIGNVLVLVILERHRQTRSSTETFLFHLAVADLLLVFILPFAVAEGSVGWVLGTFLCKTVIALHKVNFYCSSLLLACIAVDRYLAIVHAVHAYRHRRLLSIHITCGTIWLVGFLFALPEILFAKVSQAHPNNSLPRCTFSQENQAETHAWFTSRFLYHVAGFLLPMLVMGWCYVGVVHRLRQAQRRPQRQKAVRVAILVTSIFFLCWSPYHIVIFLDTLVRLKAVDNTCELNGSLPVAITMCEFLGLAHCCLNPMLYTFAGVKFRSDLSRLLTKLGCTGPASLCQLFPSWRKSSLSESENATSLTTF
Description: cell-based or functional assay.

B1: 2C9 (reference antibody) (antibody, human IgG1, kappa, V domains shown)
VH: EVQLVESGGGLVKPGGSLRLSCAASGFTFSTNAMNWVRQAPGKGLERVARIRSKSNNYATYYADSVKDRFTISRDDSKNTLYLQMNSLKTEDTAVYYCVTMIPFAYWGQGTLVTVSS
VL: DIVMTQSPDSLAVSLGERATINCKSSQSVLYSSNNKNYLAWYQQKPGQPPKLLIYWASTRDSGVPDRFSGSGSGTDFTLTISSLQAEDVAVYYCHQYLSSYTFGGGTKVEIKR
notes: fucosylated
The term EC50 denotes the midpoint of the concentration-response curve. As for B1, the GMFI with XC252 stood at 22400 GMFI; in the assay with human CXCR5 [1], 117000 GMFI; in the assay with XC253 it was 1780 GMFI; in the assay with XC254, 11400 GMFI; in the assay with XC251, 13300 GMFI; in the assay with XC256 it was 1970 GMFI. In addition, in the assay with XC255, the GMFI was determined as 1950 GMFI. In the assay with human CXCR5 [2], the EC50 turned out to be 0.0656 nM. Further, the “ADCC Activity Average EC50, Human B Cells” value with human CXCR5 [3] turned out to be 0.38 nM.

B2: Chimeric 11G2 (antibody, human IgG1, kappa, V domains shown)
VH: EVKLVESGGGLVQPGGSLRLSCATSGFTFTDFYMSWVRQPPGRALEWLGFIRNKANGYTTEYSASVKGRFTISRDNSQSILYLQMNTLRAGDSATYYCVRVYGSTLHYWGQGTILTVSS
VL: DVVVTQSPDSLAVSLGQRATISCRASESVEYHGTSLMHWYQQKPGQPPKLLIYAASNVESGVPARFSGSGSGTDFSLNIHPVEEGDIAMYFCQQSRKVPWTFGGGTKLEIKR
notes: mouse V regions on human IgG1/kappa; also called 11G2 (chimeric)
B2 returned an EC50 with human CXCR5 [4] of 0.00846 nM. This molecule also displayed an EC50 with human CXCR5 [2] of 0.0179 nM. Further, in the assay with human CXCR5 [3], the “ADCC Activity Average EC50, Human B Cells” value was determined as 0.564 nM and the “ADCC Activity Average EC50, Human Tfh Cells” value amounted to 0.00155 nM. Moreover, the “ADCC Activity Average EC50, NHP B Cells” value in the assay with cynomolgus monkey CXCR5 worked out at 0.115 nM.

B3: Afucosyl humanized 11G2 154/155 (antibody, human IgG1, kappa, V domains shown)
VH: EVQLVESGGGLVQPGGSLRLSCAASGFTFTDFYMSWVRQAPGKGLEWVGFIRNKANGYTTEYSASVKGRFTISRDNAKNSLYLQMNSLRAEDTAVYYCARVYGSTLHYWGQGTLVTVSS
VL: DIQMTQSPSSLSASVGDRVTITCRASESVEYHGTSLMHWYQQKPGKAPKLLIYAASNVESGVPSRFSGSGSGTDFTLTISSLQPEDFATYYCQQSRKVPWTFGQGTKVEIKR
modifications: afucosylated Fc glycan (Asn297)
notes: also called afucosyl h11G2 XC154/XC155; afucosylated h11G2 VL XC154/VH XC155
As to B3, the GMFI in the assay with XC252 is 21600 GMFI; with human CXCR5 [1] it was 139000 GMFI; with XC253, 1220 GMFI; with XC254 it was 11500 GMFI; with XC251, 14600 GMFI; with XC256, 1260 GMFI. For the same molecule, the GMFI in the assay with XC255 stood at 1320 GMFI. Further, the EC50 was 0.0106 nM with human CXCR5 [4] and 0.0066 nM with human CXCR5 [2]. Besides, the “ADCC Activity Average EC50, Human B Cells” value in the assay with human CXCR5 [3] was determined as 0.00201 nM. For the same molecule, in the assay with human CXCR5 [3], the “ADCC Activity Average EC50, Human Tfh Cells” value stood at 0.00011 nM. For the same molecule, the “ADCC Activity Average EC50, Human Tfh-like Cells” value with human CXCR5 [3] is 0.00482 nM. In addition, in the assay with cynomolgus monkey CXCR5, the “ADCC Activity Average EC50, NHP B Cells” value came out at 0.0153 nM.
